Assay results taken from the supplement of paper PMC11246515.
± gives the standard deviation of the averaged measurements.

Assay: total protein half-life in vivo (active degradation + dilution); higher = more stable protein
[1] = E. coli NCM3722 delta-clpP delta-lon delta-hslV, growth: N-lim chemostat, doubling time 6 h
[2] = E. coli NCM3722 delta-clpP, growth: N-lim chemostat, doubling time 6 h
[3] = E. coli NCM3722 delta-hslV, growth: N-lim chemostat, doubling time 6 h
[4] = E. coli NCM3722 delta-lon, growth: N-lim chemostat, doubling time 6 h
[5] = E. coli NCM3722 delta-smpB, growth: N-lim chemostat, doubling time 6 h
[6] = wild type E. coli NCM3722, growth: C-lim chemostat, doubling time 3 h
[7] = wild type E. coli NCM3722, growth: C-lim chemostat, doubling time 6 h
[8] = wild type E. coli NCM3722, growth: C-lim chemostat, doubling time 12 h
[9] = wild type E. coli NCM3722, growth: N-lim chemostat, doubling time 6 h
[10] = wild type E. coli NCM3722, growth: N-lim chemostat, doubling time 12 h
[11] = wild type E. coli NCM3722, growth: P-lim chemostat, doubling time 6 h
[12] = wild type E. coli NCM3722, growth: P-lim chemostat, doubling time 12 h

Sequence | total protein half-life in vivo [1] [h] | total protein half-life in vivo [2] [h] | total protein half-life in vivo [3] [h] | total protein half-life in vivo [4] [h] | total protein half-life in vivo [5] [h] | total protein half-life in vivo [6] [h] | total protein half-life in vivo [7] [h] | total protein half-life in vivo [8] [h] | total protein half-life in vivo [9] [h] | total protein half-life in vivo [10] [h] | total protein half-life in vivo [11] [h] | total protein half-life in vivo [12] [h]
MFTGSIVAIVTPMDEKGNVCRASLKKLIDYHVASGTSAIVSVGTTGESATLNHDEHADVVMMTLDLADGRIPVIAGTGANATAEAISLTQRFNDSGIVGCLTVTPYYNRPSQEGLYQHFKAIAEHTDLPQILYNVPSRTGCDLLPETVGRLAKVKNIIGIKEATGNLTRVNQIKELVSDDFVLLSGDDASALDFMQLGGHGVISVTANVAARDMAQMCKLAAEGHFAEARVINQRLMPLHNKLFVEPNPIPVKWACKELGLVATDTLRLPMTPITDSGRETVRAALKHAGLL [P0A6L2] | 4.22 ± 0.18 | 3.67 ± 0.84 | 3.03 ± 0.44 | 4.05 ± 0.09 | 3.42 ± 0.18 | 3.09 ± 0.099 | 5.47 ± 0.57 | 11.4 ± 0.21 | 3.43 ± 0.14 | 5.28 ± 0.1 | 5.72 ± 0.24 | 11.1 ± 0.94
MAYRSAPLYEDVIWRTHLQPQDPTLAQAVRATIAKHREHLLEFIRLDEPAPLNAMTLAQWSSPNVLSSLLAVYSDHIYRNQPMMIRENKPLISLWAQWYIGLMVPPLMLALLTQEKALDVSPEHFHAEFHETGRVACFWVDVCEDKNATPHSPQHRMETLISQALVPVVQALEATGEINGKLIWSNTGYLINWYLTEMKQLLGEATVESLRHALFFEKTLTNGEDNPLWRTVVLRDGLLVRRTCCQRYRLPDVQQCGDCTLK | 3.38 ± 1.1 |  |  |  |  |  |  |  |  |  |  | 
MKIGIIGAMEEEVTLLRDKIENRQTISLGGCEIYTGQLNGTEVALLKSGIGKVAAALGATLLLEHCKPDVIINTGSAGGLAPTLKVGDIVVSDEARYHDADVTAFGYEYGQLPGCPAGFKADDKLIAAAEACIAELNLNAVRGLIVSGDAFINGSVGLAKIRHNFPQAIAVEMEATAIAHVCHNFNVPFVVVRAISDVADQQSHLSFDEFLAVAAKQSSLMVESLVQKLAHG [P0AF12] | 4.9 ± 0.49 | 4.39 ± 0.069 | 4.42 ± 0.2 |  | 5.43 ± 0.68 | 3.27 ± 0.28 | 6.36 ± 0.19 | 12.6 ± 1.4 | 4.85 ± 0.48 | 8.24 ± 0.78 | 5.73 ± 0.097 | 12.1 ± 0.39
MSVPVQHPMYIDGQFVTWRGDAWIDVVNPATEAVISRIPDGQAEDARKAIDAAERAQPEWEALPAIERASWLRKISAGIRERASEISALIVEEGGKIQQLAEVEVAFTADYIDYMAEWARRYEGEIIQSDRPGENILLFKRALGVTTGILPWNFPFFLIARKMAPALLTGNTIVIKPSEFTPNNAIAFAKIVDEIGLPRGVFNLVLGRGETVGQELAGNPKVAMVSMTGSVSAGEKIMATAAKNITKVCLELGGKAPAIVMDDADLELAVKAIVDSRVINSGQVCNCAERVYVQKGIYDQFVNRLGEAMQAVQFGNPAERNDIAMGPLINAAALERVEQKVARAVEEGARVAFGGKAVEGKGYYYPPTLLLDVRQEMSIMHEETFGPVLPVVAFDTLEDAISMANDSDYGLTSSIYTQNLNVAMKAIKGLKFGETYINRENFEAMQGFHAGWRKSGIGGADGKHGLHEYLQTQVVYLQS | 4.75 ± 0.26 | 4.93 ± 1 | 3.81 ± 0.14 | 4.56 ± 0.062 | 4.55 ± 0.52 | 3.19 ± 0.26 | 5.86 ± 0.33 | 10.24 ± 0.092 | 4.82 ± 1.6 | 5.01 ± 1.9 | 5.871 ± 0.049 | 11.3 ± 0.13
MPSLSKEAALVHEALVARGLETPLRPPVHEMDNETRKSLIAGHMTEIMQLLNLDLADDSLMETPHRIAKMYVDEIFSGLDYANFPKITLIENKMKVDEMVTVRDITLTSTCEHHFVTIDGKATVAYIPKDSVIGLSKINRIVQFFAQRPQVQERLTQQILIALQTLLGTNNVAVSIDAVHYCVKARGIRDATSATTTTSLGGLFKSSQNTRHEFLRAVRHHN [P0A6T5] | 2.49 ± 0.12 | 1.56 ± 0.27 | 1.5 ± 0.11 | 1.82 ± 0.16 | 1.65 ± 0.21 | 2.81 ± 0.23 | 3.46 ± 0.48 | 5.29 ± 0.21 | 1.89 ± 0.34 | 2.02 ± 0.14 | 4.46 ± 0.21 | 8.1 ± 0.27
MAQRDYVRRSQPAPSRRKKSTSRKKQRNLPAVSPAMVAIAAAVLVTFIGGLYFITHHKKEESETLQSQKVTGNGLPPKPEERWRYIKELESRQPGVRAPTEPSAGGEVKTPEQLTPEQRQLLEQMQADMRQQPTQLVEVPWNEQTPEQRQQTLQRQRQAQQLAEQQRLAQQSRTTEQSWQQQTRTSQAAPVQAQPRQSKPASSQQPYQDLLQTPAHTTAQSKPQQAAPVARAADAPKPTAEKKDERRWMVQCGSFRGAEQAETVRAQLAFEGFDSKITTNNGWNRVVIGPVKGKENADSTLNRLKMAGHTNCIRLAAGG | 4.824 ± 0.04 | 6.54 ± 1.9 | 5.87 ± 0.74 | 5.94 ± 0.43 | 4.76 ± 0.2 | 3 ± 0.038 | 5.351 ± 0.053 | 9.17 ± 0.79 | 5.27 ± 0.25 | 10.2 ± 0.24 | 4.421 ± 0.02 | 9.11 ± 0.63
MMGKLIWLMGPSGSGKDSLLAELRLREQTQLLVAHRYITRDASAGSENHIALSEQEFFTRAGQNLLALSWHANGLYYGVGVEIDLWLHAGFDVLVNGSRAHLPQARARYQSALLPVCLQVSPEILRQRLENRGRENASEINARLARAARYTPQDCHTLNNDGSLRQSVDTLLTLIHQKEKHHACL | 5.33 |  |  |  |  |  |  |  |  |  | 0.578 | 1.28
MPLLDSFTVDHTRMEAPAVRVAKTMNTPHGDAITVFDLRFCVPNKEVMPERGIHTLEHLFAGFMRNHLNGNGVEIIDISPMGCRTGFYMSLIGTPDEQRVADAWKAAMEDVLKVQDQNQIPELNVYQCGTYQMHSLQEAQDIARSILERDVRINSNEELALPKEKLQELHI | 5.42 ± 0.74 | 4.79 ± 0.64 | 4.37 ± 0.6 | 4.38 ± 0.28 | 3.97 ± 0.12 | 2.71 ± 0.32 | 4.05 ± 0.31 | 7.07 ± 0.68 | 3.61 ± 0.1 | 5.61 ± 0.47 | 4.72 ± 0.19 | 9.47 ± 0.63
